# T1: WRS (tryptophanyl-tRNA synthetase), purified recombinant antigen / standard (human, UniProt P23381 1-471, limits assumed)
# T1 construct: The recombinant construct used for panning, SPR, Luminex beads and ELISA is not described; also called WRS 항원; 재조합 WRS 표준물질
# T1 sequence (looked up): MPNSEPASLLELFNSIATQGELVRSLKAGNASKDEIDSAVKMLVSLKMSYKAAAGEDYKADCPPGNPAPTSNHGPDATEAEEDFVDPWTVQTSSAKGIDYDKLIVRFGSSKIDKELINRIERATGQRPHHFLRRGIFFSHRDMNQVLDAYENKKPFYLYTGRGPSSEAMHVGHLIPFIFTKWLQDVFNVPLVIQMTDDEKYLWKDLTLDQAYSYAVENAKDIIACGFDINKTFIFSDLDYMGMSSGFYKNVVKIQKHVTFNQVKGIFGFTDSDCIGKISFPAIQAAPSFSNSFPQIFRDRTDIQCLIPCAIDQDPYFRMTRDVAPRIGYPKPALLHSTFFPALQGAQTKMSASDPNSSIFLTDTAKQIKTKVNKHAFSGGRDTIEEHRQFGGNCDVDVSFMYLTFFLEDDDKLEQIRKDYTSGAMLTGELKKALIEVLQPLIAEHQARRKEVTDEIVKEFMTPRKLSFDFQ
# T2: AIMP1 (Aminoacyl-tRNA-synthetase-interacting multifunctional protein 1), recombinant (UniProt Q12904 1-312, limits assumed)
# T2 construct: also called p43; AIMP1(p43)
# T2 sequence (looked up): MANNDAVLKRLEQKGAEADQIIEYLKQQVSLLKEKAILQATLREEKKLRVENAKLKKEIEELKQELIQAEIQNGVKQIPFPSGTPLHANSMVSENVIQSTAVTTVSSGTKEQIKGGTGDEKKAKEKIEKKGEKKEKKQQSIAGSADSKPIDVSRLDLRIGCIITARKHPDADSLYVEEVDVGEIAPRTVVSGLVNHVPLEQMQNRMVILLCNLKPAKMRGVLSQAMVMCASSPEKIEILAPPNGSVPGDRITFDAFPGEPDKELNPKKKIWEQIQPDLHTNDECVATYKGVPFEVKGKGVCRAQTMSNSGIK
# T3: HRS (Histidyl-tRNA synthetase), recombinant (UniProt P12081 1-509, limits assumed)
# T3 construct: also called 히스티딜-tRNA 합성효소
# T3 sequence (looked up): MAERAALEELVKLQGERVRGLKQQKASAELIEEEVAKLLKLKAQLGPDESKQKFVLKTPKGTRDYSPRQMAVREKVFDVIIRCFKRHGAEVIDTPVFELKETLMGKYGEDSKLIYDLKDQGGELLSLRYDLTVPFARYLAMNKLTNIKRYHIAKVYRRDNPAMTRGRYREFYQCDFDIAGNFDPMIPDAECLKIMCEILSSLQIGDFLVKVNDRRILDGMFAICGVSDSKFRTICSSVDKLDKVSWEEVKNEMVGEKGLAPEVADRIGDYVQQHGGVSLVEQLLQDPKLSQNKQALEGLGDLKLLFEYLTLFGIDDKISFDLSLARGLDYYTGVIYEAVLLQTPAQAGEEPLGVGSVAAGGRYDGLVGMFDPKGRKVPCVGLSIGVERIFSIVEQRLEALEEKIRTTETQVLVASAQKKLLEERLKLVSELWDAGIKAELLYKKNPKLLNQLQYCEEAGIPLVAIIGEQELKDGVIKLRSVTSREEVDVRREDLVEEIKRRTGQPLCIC
# T4: NRS (Asparaginyl-tRNA synthetase), recombinant (UniProt O43776 1-548, limits assumed)
# T4 construct: also called 아스파라기닐딜-tRNA 합성효소
# T4 sequence (looked up): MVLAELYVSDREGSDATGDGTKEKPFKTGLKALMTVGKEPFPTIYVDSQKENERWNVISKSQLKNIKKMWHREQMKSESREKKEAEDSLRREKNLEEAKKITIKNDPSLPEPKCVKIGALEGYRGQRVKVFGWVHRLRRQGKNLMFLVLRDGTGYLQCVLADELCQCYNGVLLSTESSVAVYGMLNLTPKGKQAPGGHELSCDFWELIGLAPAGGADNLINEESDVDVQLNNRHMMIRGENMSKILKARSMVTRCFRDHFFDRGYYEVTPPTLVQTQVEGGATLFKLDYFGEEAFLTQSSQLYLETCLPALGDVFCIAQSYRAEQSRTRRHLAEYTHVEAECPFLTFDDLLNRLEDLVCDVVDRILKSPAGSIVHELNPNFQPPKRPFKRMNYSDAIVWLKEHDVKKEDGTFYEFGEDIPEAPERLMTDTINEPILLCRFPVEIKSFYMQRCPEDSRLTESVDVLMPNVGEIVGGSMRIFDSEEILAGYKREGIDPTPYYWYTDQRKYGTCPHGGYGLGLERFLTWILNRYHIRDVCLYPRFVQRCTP
# T5: YRS (Tyrosyl-tRNA synthetase), recombinant (UniProt P54577 1-528, limits assumed)
# T5 construct: also called 타이로실-tRNA 합성효소
# T5 sequence (looked up): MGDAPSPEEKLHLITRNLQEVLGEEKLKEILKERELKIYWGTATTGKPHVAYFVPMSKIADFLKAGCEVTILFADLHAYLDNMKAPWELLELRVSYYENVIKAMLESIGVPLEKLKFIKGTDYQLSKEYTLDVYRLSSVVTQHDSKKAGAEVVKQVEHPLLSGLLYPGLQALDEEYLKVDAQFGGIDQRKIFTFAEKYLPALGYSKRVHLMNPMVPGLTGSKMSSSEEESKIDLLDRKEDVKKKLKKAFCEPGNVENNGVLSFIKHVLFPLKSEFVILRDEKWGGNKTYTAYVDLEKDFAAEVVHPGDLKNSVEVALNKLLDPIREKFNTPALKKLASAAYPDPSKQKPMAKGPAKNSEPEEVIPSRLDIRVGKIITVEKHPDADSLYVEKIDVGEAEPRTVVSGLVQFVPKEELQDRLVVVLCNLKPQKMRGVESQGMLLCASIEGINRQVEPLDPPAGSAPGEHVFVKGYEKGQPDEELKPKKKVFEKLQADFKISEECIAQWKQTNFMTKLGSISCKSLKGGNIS
# T6: GRS (Glycyl-tRNA synthetase), recombinant (UniProt P41250 55-739, limits assumed)
# T6 construct: also called 글리실-tRNA 합성효소
# T6 sequence (looked up): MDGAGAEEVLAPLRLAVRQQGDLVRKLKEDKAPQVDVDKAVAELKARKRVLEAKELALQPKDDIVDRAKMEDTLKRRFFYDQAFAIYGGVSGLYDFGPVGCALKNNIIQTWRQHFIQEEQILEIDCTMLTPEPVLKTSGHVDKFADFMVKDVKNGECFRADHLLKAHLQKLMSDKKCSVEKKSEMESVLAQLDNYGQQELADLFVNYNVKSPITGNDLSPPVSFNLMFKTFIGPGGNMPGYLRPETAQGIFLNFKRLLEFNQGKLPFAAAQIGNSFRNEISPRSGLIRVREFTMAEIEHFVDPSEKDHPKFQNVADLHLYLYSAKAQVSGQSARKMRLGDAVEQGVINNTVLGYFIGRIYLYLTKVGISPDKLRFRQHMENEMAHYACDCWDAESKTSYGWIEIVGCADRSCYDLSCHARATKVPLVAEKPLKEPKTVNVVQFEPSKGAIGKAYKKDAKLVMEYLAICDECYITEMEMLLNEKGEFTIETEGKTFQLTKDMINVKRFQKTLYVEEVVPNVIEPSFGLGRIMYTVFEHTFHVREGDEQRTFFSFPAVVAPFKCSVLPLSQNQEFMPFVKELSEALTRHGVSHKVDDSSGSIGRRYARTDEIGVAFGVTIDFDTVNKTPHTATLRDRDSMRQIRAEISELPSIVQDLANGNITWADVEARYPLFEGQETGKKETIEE
# B1: anti-WRS scFv Biocon-W1 (scFv)
# scFv: EVQLLESGGGLVQPGGSLRLSCAASGLAFSDYYMSWVRLAPGKGLEWVSVISPGSGSKYYADSVRGRFTVSRDNSKNTLYLQMNSLRAEDTAVYYCARKNQAFDYWGQGTLVTVSSGGGGSGGGGSGGGGSQSVLTQPPSASGTPGQRVTISCTGSSSNIGSNYVTWYQQLPGTAPKLLIYANSQRPSGVPDRFSGSKSGTSASLAISGLRSEDEADYYCASWDASLSGYVFGGGTKLTVL
# notes: Single clone selected from a human VH3-23/VL1g synthetic scFv phage library and expressed in the E. coli periplasm; also called 항 WRS scFv 항체; 본 발명의 항체; not shown: His and HA tags from the pComb3X vector, implied by Ni-NTA purification and anti-HA detection
# What was measured:
# [1] = target: T1, WRS (tryptophanyl-tRNA synthetase), …; experiment: SPR (ProteOn XPR36), WRS amine-coupled to GLC chip, scFv 500-30 nM as analyte, 25 C
# [2] = target: T2, AIMP1 …; experiment: Luminex multiplex bead assay, antigen coupled to beads, anti-HA-biotin / SA-PE detection
# [3] = target: T3, HRS (Histidyl-tRNA synthetase), …; experiment: as above
# [4] = target: T4, NRS (Asparaginyl-tRNA synthetase), …; experiment: as above
# [5] = target: T7, KRS (Lysyl-tRNA synthetase), recombinant (UniProt Q15046 1-597, limits assumed); experiment: as above
# T7 construct: also called 리실-tRNA 합성효소
# T7 sequence (Q15046 whole entry): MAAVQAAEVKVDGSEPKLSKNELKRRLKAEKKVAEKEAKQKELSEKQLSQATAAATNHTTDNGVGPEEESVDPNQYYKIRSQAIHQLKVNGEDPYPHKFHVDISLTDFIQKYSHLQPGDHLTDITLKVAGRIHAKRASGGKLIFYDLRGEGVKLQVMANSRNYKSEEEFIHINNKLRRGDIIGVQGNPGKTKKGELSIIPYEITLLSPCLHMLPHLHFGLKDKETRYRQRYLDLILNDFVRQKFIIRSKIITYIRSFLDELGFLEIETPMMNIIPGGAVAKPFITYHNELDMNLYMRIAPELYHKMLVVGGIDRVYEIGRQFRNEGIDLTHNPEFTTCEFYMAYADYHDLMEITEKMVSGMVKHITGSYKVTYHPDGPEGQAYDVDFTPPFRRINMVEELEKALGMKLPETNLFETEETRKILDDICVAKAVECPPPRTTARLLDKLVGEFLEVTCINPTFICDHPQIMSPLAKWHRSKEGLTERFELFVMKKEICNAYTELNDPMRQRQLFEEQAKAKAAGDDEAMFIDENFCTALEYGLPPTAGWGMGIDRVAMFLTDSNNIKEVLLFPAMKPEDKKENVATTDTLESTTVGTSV
# [6] = target: T8, SRS (Seryl-tRNA synthetase), recombinant (UniProt P49591 1-514, limits assumed); experiment: as above
# T8 construct: also called 세릴-tRNA 합성효소
# T8 sequence (P49591 whole entry): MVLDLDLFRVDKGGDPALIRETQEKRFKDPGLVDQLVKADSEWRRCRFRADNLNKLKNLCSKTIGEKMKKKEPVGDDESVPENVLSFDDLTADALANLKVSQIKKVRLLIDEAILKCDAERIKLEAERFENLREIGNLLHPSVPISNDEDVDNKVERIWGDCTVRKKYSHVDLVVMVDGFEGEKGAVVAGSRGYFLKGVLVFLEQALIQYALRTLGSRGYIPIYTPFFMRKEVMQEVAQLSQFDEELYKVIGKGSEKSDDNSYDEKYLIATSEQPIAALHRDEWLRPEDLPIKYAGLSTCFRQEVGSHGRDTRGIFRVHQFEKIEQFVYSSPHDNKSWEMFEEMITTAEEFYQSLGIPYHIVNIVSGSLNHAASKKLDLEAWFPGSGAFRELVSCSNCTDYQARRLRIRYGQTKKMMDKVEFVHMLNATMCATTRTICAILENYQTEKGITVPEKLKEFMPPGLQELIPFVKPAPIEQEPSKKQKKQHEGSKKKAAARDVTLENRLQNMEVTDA
# [7] = target: T5, YRS (Tyrosyl-tRNA synthetase), …; experiment: as above
# [8] = target: T6, GRS (Glycyl-tRNA synthetase), …; experiment: as above
binder,measurement,setting,value
B1,Kd,[1],700 nM
same,binding result,[2],no binding
same,binding result,[3],no binding
same,binding result,[4],no binding
same,binding result,[5],no binding
same,binding result,[6],no binding
same,binding result,[7],no binding
same,binding result,[8],no binding

# — patent KR20150077891A (dated 2015)
